# Key:
# [1] = biological target: batCOV5-M, trypsin-treated stable core as crystallized (batCOV5-M_(xtal)) (Pipistrellus bat coronavirus HKU5) (UniProt A3EXD6); test: crystal structure
# [2] = biological target: batCOV5-MCTD-GFP as crystallized (Pipistrellus bat coronavirus HKU5) (UniProt A3EXD6); test: crystal structure
Substance,stoichiometry N [1],stoichiometry N [2]
"batCOV5-M, trypsin-treated stable core as crystallized (batCOV5-M_(xtal)) (from UniProt A3EXD6 1-220) (natural protein)",2,
batCOV5-MCTD-GFP as crystallized (from UniProt A3EXD6 115-203) (domain or fragment),,4

# — paper doi:10.1101/2022.06.28.497981
